One substance from patent US20110184016A1 can be followed below.

Assay [1] addresses human protease-activated receptor 2 (human) (UniProt P55085). Briefly: cell-based or functional assay.
The target in assay [2] is T1, human protease-activated receptor 4 (human) (UniProt Q96RI0).
T1 sequence (looked up): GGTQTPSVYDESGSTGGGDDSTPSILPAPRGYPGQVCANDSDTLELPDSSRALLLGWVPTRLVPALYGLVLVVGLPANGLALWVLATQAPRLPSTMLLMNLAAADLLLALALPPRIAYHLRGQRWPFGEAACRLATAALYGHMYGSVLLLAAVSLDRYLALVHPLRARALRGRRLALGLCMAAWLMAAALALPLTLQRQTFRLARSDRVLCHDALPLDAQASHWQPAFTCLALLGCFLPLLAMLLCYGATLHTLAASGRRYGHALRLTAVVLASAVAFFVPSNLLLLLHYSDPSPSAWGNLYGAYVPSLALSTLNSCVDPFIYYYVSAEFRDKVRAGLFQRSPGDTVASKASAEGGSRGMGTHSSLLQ
Briefly: cell-based or functional assay.

Chain of recombinant human cathepsin S (P25774 115-331): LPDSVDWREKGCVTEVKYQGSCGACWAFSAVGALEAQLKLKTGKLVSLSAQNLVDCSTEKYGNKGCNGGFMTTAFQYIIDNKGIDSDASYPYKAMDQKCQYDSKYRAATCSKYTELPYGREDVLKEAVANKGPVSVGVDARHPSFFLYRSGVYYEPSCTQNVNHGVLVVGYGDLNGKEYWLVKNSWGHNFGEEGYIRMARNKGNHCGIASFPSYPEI

Consider “recombinant human cathepsin S (from UniProt P25774 115-331) (enzyme)”, for which the calcium flux (ratiometric Fura-2 imaging, transfected HeLa cells) in assay [1] and in assay [2] was 30 nM throughout.
